Test results reported in paper PMC5818494, “Specific Recognition of Arginine Methylated Histone Tails by JMJD5 and JMJD7” (Scientific Reports, 2018).
Read-outs that look alike come from different tables or passages of the source.

Legend:
calf bulk histone [1] = test: SPR; Biacore; 10 μg/ml calf bulk histone in 50 mM sodium acetate pH 5.0 coated onto a CM5 chip; enzyme injected at different concentrations; room temperature; non-linear binding kinetics, ranges estimated
calf bulk histone [2] = test: as above; remark: listed apart in the source
[3] = biological target: histone H3 peptide pH3R2me2a N-terminal tail peptide (Homo sapiens) (UniProt P68431); test: fluorescence polarization; conditions: cited from earlier work
[4] = biological target: histone H3 peptide (pH3) N-terminal tail peptide (Homo sapiens) (UniProt P68431); test: fluorescence polarization; conditions: cited from earlier work
[5] = biological target: histone H3 peptide pH3K4(me2) N-terminal tail peptide (Homo sapiens) (UniProt P68431); conditions: cited from earlier work

c-JMJD5 catalytic core, sequence (Q8N371 183-416): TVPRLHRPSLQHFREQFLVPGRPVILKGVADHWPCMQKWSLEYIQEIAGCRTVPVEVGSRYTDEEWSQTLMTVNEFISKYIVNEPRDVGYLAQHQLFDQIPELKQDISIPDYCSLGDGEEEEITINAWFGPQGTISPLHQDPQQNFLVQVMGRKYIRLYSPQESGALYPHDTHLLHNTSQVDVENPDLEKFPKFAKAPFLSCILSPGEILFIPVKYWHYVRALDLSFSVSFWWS
c-JMJD5 (JMJD5 residues 183–416, lacking the N-terminal domain), sequence (Q8N371 183-416): as above
JMJD7 (mouse), JMJD7 protein alone generated from GST-JMJD7 fusion protein, sequence (P0C872 whole entry, the tested form may be a part): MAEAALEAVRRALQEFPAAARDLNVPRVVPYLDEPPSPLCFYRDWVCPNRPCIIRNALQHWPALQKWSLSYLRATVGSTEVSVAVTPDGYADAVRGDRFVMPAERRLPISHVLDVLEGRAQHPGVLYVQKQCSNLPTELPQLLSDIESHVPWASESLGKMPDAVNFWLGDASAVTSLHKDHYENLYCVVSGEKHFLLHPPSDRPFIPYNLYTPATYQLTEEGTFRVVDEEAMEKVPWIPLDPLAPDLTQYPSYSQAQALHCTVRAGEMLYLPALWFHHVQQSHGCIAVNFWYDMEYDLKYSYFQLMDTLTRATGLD

## JMJD7 (mouse), JMJD7 protein alone generated from GST-JMJD7 fusion protein (from UniProt P0C872 1-316) (enzyme)
Calf bulk histone [1]
  Kd: 1 to 10 µM
Calf bulk histone [2]
  Kd: 1 to 50 µM

## c-JMJD5 (JMJD5 residues 183–416, lacking the N-terminal domain) (from UniProt Q8N371 183-416) (domain or fragment)
Calf bulk histone [1]
  Kd: 1 to 10 µM
Calf bulk histone [2]
  Kd: 1 to 50 µM

## c-JMJD5 catalytic core (from UniProt Q8N371)
[3]
  Kd: 0.112 µM
[4]
  Kd: 7 µM
[5]
  Kd: 4 µM
